From publication PMC5029092 (Science signaling, 2011)

Columns and labels:
[1] = target: recombinant human TLR4 and MD2 complex (human, UniProt O00206 24-631; Q9Y6Y9 19-160); test: MST
[2] = target: recombinant human TLR2 (human, UniProt O60603 21-588); test: MST
Chain of recombinant human TLR2 (O60603 21-588): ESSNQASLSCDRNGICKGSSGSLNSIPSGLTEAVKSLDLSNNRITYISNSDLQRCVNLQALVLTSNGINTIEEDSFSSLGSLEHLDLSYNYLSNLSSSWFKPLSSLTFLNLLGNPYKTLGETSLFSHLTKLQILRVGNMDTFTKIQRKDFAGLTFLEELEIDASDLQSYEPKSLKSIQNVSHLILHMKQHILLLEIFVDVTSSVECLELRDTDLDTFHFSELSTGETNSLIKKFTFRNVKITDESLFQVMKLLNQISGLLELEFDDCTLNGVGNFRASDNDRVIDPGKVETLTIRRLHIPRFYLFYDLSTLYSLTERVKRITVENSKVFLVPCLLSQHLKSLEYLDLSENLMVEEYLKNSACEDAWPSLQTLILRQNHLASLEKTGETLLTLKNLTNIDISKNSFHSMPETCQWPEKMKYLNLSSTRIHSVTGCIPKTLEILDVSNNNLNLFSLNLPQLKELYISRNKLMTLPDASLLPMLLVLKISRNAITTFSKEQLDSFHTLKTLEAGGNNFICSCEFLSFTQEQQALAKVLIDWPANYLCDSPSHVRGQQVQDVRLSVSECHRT

Chain of recombinant human TLR4 and MD2 complex (O00206 24-631, chain 1 of 2): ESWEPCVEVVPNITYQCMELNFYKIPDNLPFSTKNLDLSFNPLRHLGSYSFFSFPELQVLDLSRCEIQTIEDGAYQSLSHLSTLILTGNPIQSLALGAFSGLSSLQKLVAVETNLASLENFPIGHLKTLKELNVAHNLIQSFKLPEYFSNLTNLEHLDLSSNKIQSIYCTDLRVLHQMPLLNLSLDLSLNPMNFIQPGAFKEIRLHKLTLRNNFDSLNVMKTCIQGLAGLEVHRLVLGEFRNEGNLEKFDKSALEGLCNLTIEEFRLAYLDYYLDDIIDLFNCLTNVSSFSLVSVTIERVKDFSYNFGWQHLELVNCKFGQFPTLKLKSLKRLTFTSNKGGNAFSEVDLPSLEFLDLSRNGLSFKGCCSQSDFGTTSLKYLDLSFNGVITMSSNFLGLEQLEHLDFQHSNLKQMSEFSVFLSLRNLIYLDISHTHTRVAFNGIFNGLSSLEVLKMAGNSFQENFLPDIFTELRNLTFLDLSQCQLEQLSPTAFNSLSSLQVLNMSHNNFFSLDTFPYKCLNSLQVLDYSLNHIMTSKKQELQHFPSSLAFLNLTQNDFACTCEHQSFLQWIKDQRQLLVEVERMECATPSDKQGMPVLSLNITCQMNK
Chain of recombinant human TLR4 and MD2 complex (Q9Y6Y9 19-160, chain 2 of 2): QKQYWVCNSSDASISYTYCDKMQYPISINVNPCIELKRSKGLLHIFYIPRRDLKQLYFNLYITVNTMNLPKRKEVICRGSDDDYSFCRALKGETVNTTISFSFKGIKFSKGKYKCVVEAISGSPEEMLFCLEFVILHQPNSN

B1: NT-647-labeled human decorin (natural protein, UniProt P07585 31-359, looked up)
chain: DEASGIGPEVPDDRDFEPSLGPVCPFRCQCHLRVVQCSDLGLDKVPKDLPPDTTLLDLQNNKITEIKDGDFKNLKNLHALILVNNKISKVSPGAFTPLVKLERLYLSKNQLKELPEKMPKTLQELRAHENEITKVRKVTFNGLNQMIVIELGTNPLKSSGIENGAFQGMKKLSYIRIADTNITSIPQGLPPSLTELHLDGNKISRVDAASLKGLNNLAKLGLSFNSISAVDNGSLANTPHLRELHLDNNKLTRVPGGLAEHKYIQVVYLHNNNISVVGSSDFCPPGHNTKKASYSGVSLFSNPVQYWEIQPSTFRCVYVRSAIQLGNYK
modifications: fluorophore NT-647 (Monolith NT protein Labeling Kit)
In the case of B1, the Kd [1] is reported as 37 ± 5 nM and the Kd [2] is reported as 59 ± 10 nM.
